Reference: patent US20140087995A1 (published 2014)
Numbered stars: 1 amine (or outer) side, 2 acyl side, 3 side chain; on linkers, the order of the positions; unused ones are H or OH. Bridge positions count the residues as written; N and C are the ends. Side chains are listed from the residue outwards. Ends that are not written are not given here. * marks the point of attachment. C20 diacid = O=C(O)CCCCCCCCCCCCCCCCCCC(=O)*; γGlu = O=C(O)[C@H](CCC(=O)[*:2])N[*:1]

T1: human calcitonin receptor (human, UniProt P30988 25-474)
T1 construct: whole, on cells; Assayed as cell membranes of BHK tk'ts 13 cells stably transfected with the human calcitonin receptor (Assay VII); also called hCTR; hCT
T1 sequence (looked up): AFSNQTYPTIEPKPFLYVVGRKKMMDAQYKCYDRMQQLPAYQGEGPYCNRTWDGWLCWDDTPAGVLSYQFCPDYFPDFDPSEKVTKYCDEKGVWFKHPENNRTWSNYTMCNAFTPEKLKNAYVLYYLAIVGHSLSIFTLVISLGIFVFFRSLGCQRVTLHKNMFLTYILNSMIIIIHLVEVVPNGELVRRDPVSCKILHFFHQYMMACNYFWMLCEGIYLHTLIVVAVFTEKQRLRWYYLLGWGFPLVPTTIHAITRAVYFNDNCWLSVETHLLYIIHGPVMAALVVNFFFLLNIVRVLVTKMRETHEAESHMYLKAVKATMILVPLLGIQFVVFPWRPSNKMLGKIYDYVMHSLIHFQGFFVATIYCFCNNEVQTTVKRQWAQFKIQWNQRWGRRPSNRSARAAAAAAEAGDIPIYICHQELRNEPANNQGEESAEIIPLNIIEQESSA

B1: N^ε1-[(4S)-4-carboxy-4-(19-carboxynonadecanoylamino)butanoyl]-[Arg17,Pro21,Pro27,His34]-h-amylin (peptide)
peptide: K([γGlu-C20 diacid])CNTATCATQRLANFLRHSSPNFGAIPSSTNVGHNTY-NH2
modifications: disulfide 2-7; N-terminus assumed
SMILES: CC[C@H](C)[C@H](NC(=O)[C@H](C)NC(=O)CNC(=O)[C@H](Cc1ccccc1)NC(=O)[C@H](CC(N)=O)NC(=O)[C@@H]1CCCN1C(=O)[C@H](CO)NC(=O)[C@H](CO)NC(=O)[C@H](Cc1c[nH]cn1)NC(=O)[C@H](CCCNC(=N)N)NC(=O)[C@H](CC(C)C)NC(=O)[C@H](Cc1ccccc1)NC(=O)[C@H](CC(N)=O)NC(=O)[C@H](C)NC(=O)[C@H](CC(C)C)NC(=O)[C@H](CCCNC(=N)N)NC(=O)[C@H](CCC(N)=O)NC(=O)[C@@H](NC(=O)[C@H](C)NC(=O)[C@@H]1CSSC[C@H](NC(=O)[C@@H](N)CCCCNC(=O)CC[C@H](NC(=O)CCCCCCCCCCCCCCCCCCC(=O)O)C(=O)O)C(=O)N[C@@H](CC(N)=O)C(=O)N[C@@H]([C@@H](C)O)C(=O)N[C@@H](C)C(=O)N[C@@H]([C@@H](C)O)C(=O)N1)[C@@H](C)O)C(=O)N1CCC[C@H]1C(=O)N[C@@H](CO)C(=O)N[C@@H](CO)C(=O)N[C@H](C(=O)N[C@@H](CC(N)=O)C(=O)N[C@H](C(=O)NCC(=O)N[C@@H](Cc1c[nH]cn1)C(=O)N[C@@H](CC(N)=O)C(=O)N[C@H](C(=O)N[C@@H](Cc1ccc(O)cc1)C(N)=O)[C@@H](C)O)C(C)C)[C@@H](C)O
notes: also called compound 77
B2: N^ε1-[(4S)-4-carboxy-4-(19-carboxynonadecanoylamino)butanoyl]-[His14,Arg17,Pro21,Pro27,His34]-h-amylin (peptide)
peptide: K([γGlu-C20 diacid])CNTATCATQRLAHFLRHSSPNFGAIPSSTNVGHNTY-NH2
modifications: disulfide 2-7; N-terminus assumed
SMILES: CC[C@H](C)[C@H](NC(=O)[C@H](C)NC(=O)CNC(=O)[C@H](Cc1ccccc1)NC(=O)[C@H](CC(N)=O)NC(=O)[C@@H]1CCCN1C(=O)[C@H](CO)NC(=O)[C@H](CO)NC(=O)[C@H](Cc1c[nH]cn1)NC(=O)[C@H](CCCNC(=N)N)NC(=O)[C@H](CC(C)C)NC(=O)[C@H](Cc1ccccc1)NC(=O)[C@H](Cc1c[nH]cn1)NC(=O)[C@H](C)NC(=O)[C@H](CC(C)C)NC(=O)[C@H](CCCNC(=N)N)NC(=O)[C@H](CCC(N)=O)NC(=O)[C@@H](NC(=O)[C@H](C)NC(=O)[C@@H]1CSSC[C@H](NC(=O)[C@@H](N)CCCCNC(=O)CC[C@H](NC(=O)CCCCCCCCCCCCCCCCCCC(=O)O)C(=O)O)C(=O)N[C@@H](CC(N)=O)C(=O)N[C@@H]([C@@H](C)O)C(=O)N[C@@H](C)C(=O)N[C@@H]([C@@H](C)O)C(=O)N1)[C@@H](C)O)C(=O)N1CCC[C@H]1C(=O)N[C@@H](CO)C(=O)N[C@@H](CO)C(=O)N[C@H](C(=O)N[C@@H](CC(N)=O)C(=O)N[C@H](C(=O)NCC(=O)N[C@@H](Cc1c[nH]cn1)C(=O)N[C@@H](CC(N)=O)C(=O)N[C@H](C(=O)N[C@@H](Cc1ccc(O)cc1)C(N)=O)[C@@H](C)O)C(C)C)[C@@H](C)O
notes: also called compound 81
B3: N^ε1-[(4S)-4-carboxy-4-(19-carboxynonadecanoylamino)butanoyl]-[Glu14,Arg17,Pro21,Pro27,Arg35]-h-amylin (peptide)
peptide: K([γGlu-C20 diacid])CNTATCATQRLAEFLRHSSPNFGAIPSSTNVGSRTY-NH2
modifications: disulfide 2-7; N-terminus assumed
SMILES: CC[C@H](C)[C@H](NC(=O)[C@H](C)NC(=O)CNC(=O)[C@H](Cc1ccccc1)NC(=O)[C@H](CC(N)=O)NC(=O)[C@@H]1CCCN1C(=O)[C@H](CO)NC(=O)[C@H](CO)NC(=O)[C@H](Cc1c[nH]cn1)NC(=O)[C@H](CCCNC(=N)N)NC(=O)[C@H](CC(C)C)NC(=O)[C@H](Cc1ccccc1)NC(=O)[C@H](CCC(=O)O)NC(=O)[C@H](C)NC(=O)[C@H](CC(C)C)NC(=O)[C@H](CCCNC(=N)N)NC(=O)[C@H](CCC(N)=O)NC(=O)[C@@H](NC(=O)[C@H](C)NC(=O)[C@@H]1CSSC[C@H](NC(=O)[C@@H](N)CCCCNC(=O)CC[C@H](NC(=O)CCCCCCCCCCCCCCCCCCC(=O)O)C(=O)O)C(=O)N[C@@H](CC(N)=O)C(=O)N[C@@H]([C@@H](C)O)C(=O)N[C@@H](C)C(=O)N[C@@H]([C@@H](C)O)C(=O)N1)[C@@H](C)O)C(=O)N1CCC[C@H]1C(=O)N[C@@H](CO)C(=O)N[C@@H](CO)C(=O)N[C@H](C(=O)N[C@@H](CC(N)=O)C(=O)N[C@H](C(=O)NCC(=O)N[C@@H](CO)C(=O)N[C@@H](CCCNC(=N)N)C(=O)N[C@H](C(=O)N[C@@H](Cc1ccc(O)cc1)C(N)=O)[C@@H](C)O)C(C)C)[C@@H](C)O
notes: also called compound 51
B4: N^ε1-[(4S)-4-carboxy-4-(19-carboxynonadecanoylamino)butanoyl]-[His14,Arg17,Pro21,Pro27,Arg34]-h-amylin (peptide)
peptide: K([γGlu-C20 diacid])CNTATCATQRLAHFLRHSSPNFGAIPSSTNVGRNTY-NH2
modifications: disulfide 2-7; N-terminus assumed
SMILES: CC[C@H](C)[C@H](NC(=O)[C@H](C)NC(=O)CNC(=O)[C@H](Cc1ccccc1)NC(=O)[C@H](CC(N)=O)NC(=O)[C@@H]1CCCN1C(=O)[C@H](CO)NC(=O)[C@H](CO)NC(=O)[C@H](Cc1c[nH]cn1)NC(=O)[C@H](CCCNC(=N)N)NC(=O)[C@H](CC(C)C)NC(=O)[C@H](Cc1ccccc1)NC(=O)[C@H](Cc1c[nH]cn1)NC(=O)[C@H](C)NC(=O)[C@H](CC(C)C)NC(=O)[C@H](CCCNC(=N)N)NC(=O)[C@H](CCC(N)=O)NC(=O)[C@@H](NC(=O)[C@H](C)NC(=O)[C@@H]1CSSC[C@H](NC(=O)[C@@H](N)CCCCNC(=O)CC[C@H](NC(=O)CCCCCCCCCCCCCCCCCCC(=O)O)C(=O)O)C(=O)N[C@@H](CC(N)=O)C(=O)N[C@@H]([C@@H](C)O)C(=O)N[C@@H](C)C(=O)N[C@@H]([C@@H](C)O)C(=O)N1)[C@@H](C)O)C(=O)N1CCC[C@H]1C(=O)N[C@@H](CO)C(=O)N[C@@H](CO)C(=O)N[C@H](C(=O)N[C@@H](CC(N)=O)C(=O)N[C@H](C(=O)NCC(=O)N[C@@H](CCCNC(=N)N)C(=O)N[C@@H](CC(N)=O)C(=O)N[C@H](C(=O)N[C@@H](Cc1ccc(O)cc1)C(N)=O)[C@@H](C)O)C(C)C)[C@@H](C)O
notes: also called compound 85
B5: N^ε1-[(4S)-4-carboxy-4-(19-carboxynonadecanoylamino)butanoyl]-[Arg17,Pro21,Pro27,His35]-h-amylin (peptide)
peptide: K([γGlu-C20 diacid])CNTATCATQRLANFLRHSSPNFGAIPSSTNVGSHTY-NH2
modifications: disulfide 2-7; N-terminus assumed
SMILES: CC[C@H](C)[C@H](NC(=O)[C@H](C)NC(=O)CNC(=O)[C@H](Cc1ccccc1)NC(=O)[C@H](CC(N)=O)NC(=O)[C@@H]1CCCN1C(=O)[C@H](CO)NC(=O)[C@H](CO)NC(=O)[C@H](Cc1c[nH]cn1)NC(=O)[C@H](CCCNC(=N)N)NC(=O)[C@H](CC(C)C)NC(=O)[C@H](Cc1ccccc1)NC(=O)[C@H](CC(N)=O)NC(=O)[C@H](C)NC(=O)[C@H](CC(C)C)NC(=O)[C@H](CCCNC(=N)N)NC(=O)[C@H](CCC(N)=O)NC(=O)[C@@H](NC(=O)[C@H](C)NC(=O)[C@@H]1CSSC[C@H](NC(=O)[C@@H](N)CCCCNC(=O)CC[C@H](NC(=O)CCCCCCCCCCCCCCCCCCC(=O)O)C(=O)O)C(=O)N[C@@H](CC(N)=O)C(=O)N[C@@H]([C@@H](C)O)C(=O)N[C@@H](C)C(=O)N[C@@H]([C@@H](C)O)C(=O)N1)[C@@H](C)O)C(=O)N1CCC[C@H]1C(=O)N[C@@H](CO)C(=O)N[C@@H](CO)C(=O)N[C@H](C(=O)N[C@@H](CC(N)=O)C(=O)N[C@H](C(=O)NCC(=O)N[C@@H](CO)C(=O)N[C@@H](Cc1c[nH]cn1)C(=O)N[C@H](C(=O)N[C@@H](Cc1ccc(O)cc1)C(N)=O)[C@@H](C)O)C(C)C)[C@@H](C)O
notes: also called compound 60

biological target: T1, human calcitonin receptor; assay: IC50 at hCTR divided by IC50 at hAmylin-R (SPA competition assays V and VII)
How it was run: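 Competition binding by SPA uses membrane preparations (35 ng/μL final) in pH 7.4 Hepes buffer with 1 mM CaCl2 and 5 mM MgCl₂. Incubation lasts 120 min at 25° C, and IC₅₀ comes from one-site fitting.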

Going from B1 to B2, the “Ratio hCT/hAmylin binding” value falls from 118 to 87.2.

First: B3
Second: B4
The “Ratio hCT/hAmylin binding” value of the first is lower: 37.5 for the first, 91.8 for the second.

In the case of B5, the “Ratio hCT/hAmylin binding” value is reported as 45.2.

biological target: T1, human calcitonin receptor; assay: SPA competition vs 125I-calcitonin, membranes of BHK cells with human calcitonin receptor (Assay VII)
How it was run: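 BHK hCTR membranes 35 ng/μL + SPA beads 0.05 mg/well; buffer 50 mM Hepes pH 7.4, 1 mM CaCl2, 5 mM MgCl₂, 0.1% OA, 0.02% Tween20. 120 min, 25° C., shaking. Scintillation count; IC50 by one-site binding competition.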

First: B1
Second: B2
The IC50 of the first is 2.1-fold higher: 50.7 nM for the first, 23.6 nM for the second.

Compared with B3, B4 is 2.6-fold higher in IC50: 31.1 nM for the first, 80.4 nM for the second. The first is the more potent here.

In the case of B5, the IC50 is reported as 31.4 nM.
